Reference: US9751918B2, “Transgenic plants expressing cobalamin binding proteins” (XERAGENX LLC, priority 2001, dated 2017)
Blank lines part the entries; values can stand above or below the molecule they belong to.

Columns and labels:
[1] = biological target: human intestinal receptor protein cubilin (Homo sapiens, UniProt O60494); experiment: BIAcore 2000 binding of intrinsic factor to immobilized cubilin; conditions: for binding to cubilin, holo-form: intrinsic factor saturated with vitamin B12 (holo-form); for binding to cubilin, apo-form: intrinsic factor unsaturated with vitamin B12 (apo-form)
human intestinal receptor protein cubilin, sequence (O60494 36-3623): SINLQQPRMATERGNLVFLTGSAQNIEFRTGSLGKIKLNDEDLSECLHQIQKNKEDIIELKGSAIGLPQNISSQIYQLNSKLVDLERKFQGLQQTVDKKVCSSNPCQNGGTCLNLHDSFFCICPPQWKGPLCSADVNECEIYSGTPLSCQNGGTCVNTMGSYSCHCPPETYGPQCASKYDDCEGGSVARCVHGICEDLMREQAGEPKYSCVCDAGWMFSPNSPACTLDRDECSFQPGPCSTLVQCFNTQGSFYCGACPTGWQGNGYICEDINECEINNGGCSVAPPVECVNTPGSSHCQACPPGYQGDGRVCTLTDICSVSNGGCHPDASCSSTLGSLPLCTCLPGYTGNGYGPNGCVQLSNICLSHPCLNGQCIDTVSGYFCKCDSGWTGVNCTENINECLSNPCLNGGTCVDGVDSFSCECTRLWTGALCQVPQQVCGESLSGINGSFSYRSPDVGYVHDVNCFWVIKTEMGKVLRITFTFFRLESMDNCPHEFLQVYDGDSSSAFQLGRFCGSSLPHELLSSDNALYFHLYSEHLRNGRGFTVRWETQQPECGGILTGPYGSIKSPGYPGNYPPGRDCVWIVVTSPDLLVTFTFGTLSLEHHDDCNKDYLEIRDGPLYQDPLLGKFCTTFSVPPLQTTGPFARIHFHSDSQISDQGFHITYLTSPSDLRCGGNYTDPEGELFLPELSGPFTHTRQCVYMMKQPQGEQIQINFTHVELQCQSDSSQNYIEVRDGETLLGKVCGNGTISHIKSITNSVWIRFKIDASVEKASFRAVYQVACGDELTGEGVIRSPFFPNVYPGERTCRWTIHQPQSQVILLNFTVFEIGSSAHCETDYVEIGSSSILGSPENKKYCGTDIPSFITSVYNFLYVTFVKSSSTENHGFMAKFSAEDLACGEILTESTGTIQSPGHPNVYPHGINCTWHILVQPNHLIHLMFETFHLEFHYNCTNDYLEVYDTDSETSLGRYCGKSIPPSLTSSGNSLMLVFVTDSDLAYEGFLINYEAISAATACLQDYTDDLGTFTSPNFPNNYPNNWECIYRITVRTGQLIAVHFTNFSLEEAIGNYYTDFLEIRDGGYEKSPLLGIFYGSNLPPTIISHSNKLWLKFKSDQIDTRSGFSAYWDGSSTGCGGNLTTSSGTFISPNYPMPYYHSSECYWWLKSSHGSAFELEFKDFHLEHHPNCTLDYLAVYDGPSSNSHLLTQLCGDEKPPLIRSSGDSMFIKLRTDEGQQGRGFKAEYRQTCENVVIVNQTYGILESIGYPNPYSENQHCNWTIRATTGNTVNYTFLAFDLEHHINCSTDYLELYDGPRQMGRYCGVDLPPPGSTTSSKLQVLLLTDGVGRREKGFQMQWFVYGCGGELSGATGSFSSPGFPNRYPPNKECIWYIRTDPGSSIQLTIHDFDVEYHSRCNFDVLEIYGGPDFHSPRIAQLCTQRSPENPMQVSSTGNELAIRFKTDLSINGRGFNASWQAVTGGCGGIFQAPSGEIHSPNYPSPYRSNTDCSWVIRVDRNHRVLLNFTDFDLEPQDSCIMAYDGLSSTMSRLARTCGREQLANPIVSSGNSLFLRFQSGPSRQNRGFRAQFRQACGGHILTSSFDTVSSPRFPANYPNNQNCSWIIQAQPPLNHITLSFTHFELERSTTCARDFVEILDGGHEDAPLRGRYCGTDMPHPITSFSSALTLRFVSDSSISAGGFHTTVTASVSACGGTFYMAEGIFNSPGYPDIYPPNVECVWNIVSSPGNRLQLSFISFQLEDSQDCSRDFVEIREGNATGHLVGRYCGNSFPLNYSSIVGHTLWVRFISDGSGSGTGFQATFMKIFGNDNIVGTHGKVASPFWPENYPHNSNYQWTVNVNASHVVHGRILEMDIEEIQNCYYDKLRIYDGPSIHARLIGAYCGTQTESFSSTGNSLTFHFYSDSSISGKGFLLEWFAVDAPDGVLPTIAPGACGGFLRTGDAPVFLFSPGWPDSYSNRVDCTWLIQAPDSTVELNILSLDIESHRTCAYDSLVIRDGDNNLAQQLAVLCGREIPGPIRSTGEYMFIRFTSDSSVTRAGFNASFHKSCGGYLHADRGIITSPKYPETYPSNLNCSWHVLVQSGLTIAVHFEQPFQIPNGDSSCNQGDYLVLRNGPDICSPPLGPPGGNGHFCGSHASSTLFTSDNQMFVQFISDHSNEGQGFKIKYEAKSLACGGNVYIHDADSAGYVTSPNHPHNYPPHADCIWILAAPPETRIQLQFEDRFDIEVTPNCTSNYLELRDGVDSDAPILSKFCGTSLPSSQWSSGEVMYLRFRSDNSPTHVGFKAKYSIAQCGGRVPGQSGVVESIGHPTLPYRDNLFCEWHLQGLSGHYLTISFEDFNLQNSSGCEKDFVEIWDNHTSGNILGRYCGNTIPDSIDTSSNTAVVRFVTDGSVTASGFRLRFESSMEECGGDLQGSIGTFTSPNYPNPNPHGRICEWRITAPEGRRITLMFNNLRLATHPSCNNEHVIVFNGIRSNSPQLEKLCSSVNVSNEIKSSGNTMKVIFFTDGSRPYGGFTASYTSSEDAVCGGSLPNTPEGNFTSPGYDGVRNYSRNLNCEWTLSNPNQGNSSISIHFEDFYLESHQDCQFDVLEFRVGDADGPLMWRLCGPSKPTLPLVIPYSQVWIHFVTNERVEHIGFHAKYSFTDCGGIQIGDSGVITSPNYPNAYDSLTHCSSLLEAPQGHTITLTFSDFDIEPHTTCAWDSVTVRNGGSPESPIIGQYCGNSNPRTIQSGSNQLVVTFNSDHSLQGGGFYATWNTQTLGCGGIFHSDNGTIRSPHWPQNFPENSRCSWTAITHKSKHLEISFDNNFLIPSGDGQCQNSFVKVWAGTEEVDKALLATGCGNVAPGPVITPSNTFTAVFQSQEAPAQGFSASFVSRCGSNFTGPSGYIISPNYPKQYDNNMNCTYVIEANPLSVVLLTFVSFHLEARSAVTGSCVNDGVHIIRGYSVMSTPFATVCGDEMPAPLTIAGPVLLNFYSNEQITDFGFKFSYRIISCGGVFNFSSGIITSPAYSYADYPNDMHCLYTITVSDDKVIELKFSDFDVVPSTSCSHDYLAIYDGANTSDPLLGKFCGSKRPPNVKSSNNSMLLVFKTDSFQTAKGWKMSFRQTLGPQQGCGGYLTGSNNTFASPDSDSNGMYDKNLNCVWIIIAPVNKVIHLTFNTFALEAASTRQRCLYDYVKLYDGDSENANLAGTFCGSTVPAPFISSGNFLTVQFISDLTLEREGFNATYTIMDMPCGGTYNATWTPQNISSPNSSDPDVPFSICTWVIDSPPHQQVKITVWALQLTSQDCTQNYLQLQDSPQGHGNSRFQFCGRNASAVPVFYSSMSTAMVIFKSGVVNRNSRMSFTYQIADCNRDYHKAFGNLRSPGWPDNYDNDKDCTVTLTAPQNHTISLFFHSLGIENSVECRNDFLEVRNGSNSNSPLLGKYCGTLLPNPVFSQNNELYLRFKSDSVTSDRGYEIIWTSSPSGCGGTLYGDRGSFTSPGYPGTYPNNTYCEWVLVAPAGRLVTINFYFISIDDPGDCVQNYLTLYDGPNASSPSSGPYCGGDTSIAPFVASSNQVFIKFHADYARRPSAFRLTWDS
human intestinal receptor protein cubilin, sequence (P27352 19-417 partner): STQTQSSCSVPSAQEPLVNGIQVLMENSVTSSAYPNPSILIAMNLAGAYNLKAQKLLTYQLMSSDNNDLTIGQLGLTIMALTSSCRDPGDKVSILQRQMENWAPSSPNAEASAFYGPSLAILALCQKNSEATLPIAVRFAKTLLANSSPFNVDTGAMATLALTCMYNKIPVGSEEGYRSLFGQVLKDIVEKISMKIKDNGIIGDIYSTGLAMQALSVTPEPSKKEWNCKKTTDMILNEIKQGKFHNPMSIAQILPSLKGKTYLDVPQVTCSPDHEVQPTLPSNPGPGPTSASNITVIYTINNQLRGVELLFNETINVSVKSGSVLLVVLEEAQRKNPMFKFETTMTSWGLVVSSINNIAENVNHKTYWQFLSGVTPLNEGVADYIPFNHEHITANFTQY
Method: The binding between intrinsic factor and its receptor cubilin was analysed employing a BIAcore 2000 instrument (Biacore AB, Uppsala, Sweden). An increase in Resp. Diff. (Y axis) indicates binding between intrinsic factor and cubilin. At time approximately 100 a solution with intrinsic factor is added to the immobilized cubilin. Intrinsic factor was isolated from transgenic plants, human gastric juice and hog stomach. Preparations of vitamin B 12 saturated and vitamin B12 unsaturated intrinsic factor were used. At time approximately 600 intrinsic factor is removed from the solution and the dissociation between cubilin and intrinsic factor is followed.

[2] = Competitive binding of 57Co-labelled cobalamin versus unlabelled cobalamin; conditions: 57Co-cobalamin mixed with increasing non-radioactive cobalamin, bound fraction by gamma counter
Method: (§1) Equal amounts of the respective proteins were added to a mixture containing a fixed amount of cobalt (57Co) labelled cobalamin mixed with increasing amounts of non-radioactive cobalamin or cobinamide (X axis). Free and bound ligand were separated and the amount of 57Co attached to the protein was measured in a gamma counter. The 57Co fraction bound relative to the amount of 57Co bound in the absence of unlabeled cobalamin or cobinamide was calculated (Y axis).
as §1, with “Both recombinant proteins were extracted form transgenic Arabidopsis thaliana plants. Equal” for “Equal”, “(57Co) labeled” for “(57Co) labelled”, “of nonradioactive” for “of non-radioactive”, “ligand was” for “ligand were”, “of unlabelled” for “of unlabeled”
(§2) One kilogram of three week old IF-plants was homogenization with 2 liters of phosphate buffer and clarified by centrifugation. This extract contained 100 mg recombinant human IF with CBC. This IF had specificity for cobalamin binding whereas the analog cobinamid was not bound by the IF as tested by the method described by (15).

[3] = Competitive binding of 57Co-labelled cobalamin versus unlabelled cobinamide; conditions: 57Co-cobalamin mixed with increasing non-radioactive cobinamide; bound fraction by gamma counter
Method: as §1
as §1, with “Both recombinant proteins were extracted form transgenic Arabidopsis thaliana plants. Equal” for “Equal”, “(57Co) labeled” for “(57Co) labelled”, “of nonradioactive” for “of non-radioactive”, “ligand was” for “ligand were”, “of unlabelled” for “of unlabeled”
as §2

[4] = listed as native intrinsic factor
[5] = listed as recombinant intrinsic factor

- binding to cubilin, holo-form ([1]; listed as human gastric IF): bind to the cubulin receptor
- binding to cubilin, holo-form [1, 4]: binds to cubilin
- binding to cubilin, apo-form ([1]; listed as human gastric IF): only when in holo-form
- binding to cubilin, apo-form [1, 4]: only when saturated with vitamin B12
- ability to bind cobalamin [2]: specificity for binding Cbl
- ability to bind cobalamin ([2]; listed as native IF): specificity for binding cobalamin
- ability to bind cobinamid [3]: not cobinamid
Molecule: native human gastric IF: Native intrinsic factor present in / isolated from human gastric juice, used for comparison [reference compound]

- binding to cubilin, holo-form [1]: binds
- binding to cubilin, holo-form [1, 5]: binds to cubilin
- binding to cubilin, apo-form [1]: does not bind
- binding to cubilin, apo-form [1, 5]: only when saturated with vitamin B12
- ability to bind cobalamin [2]: specificity for binding Cbl
- ability to bind cobalamin ([2]; listed as recombinant IF): specificity for binding cobalamin
- ability to bind cobalamin ([2]; listed as recombinant human intrinsic factor): bind cobalamin
- ability to bind cobinamid [3]: not cobinamid
Molecule: rhIF from plants: Recombinant human intrinsic factor extracted from transgenic Arabidopsis thaliana plants (mature sequence SEQ ID NO:4)

- ability to bind cobalamin [2]: binds to Cbl
- ability to bind cobalamin ([2]; listed as recombinant human transcobalamin): bind cobalamin
- ability to bind cobinamid [3]: not cobinamid
B1: rhTC: Recombinant human transcobalamin extracted from transgenic Arabidopsis thaliana plants (mature sequence SEQ ID NO:11) (protein)
chain: EMCEIPEMDSHLVEKLGQHLLPWMDRLSLEHLNPSIYVGLRLSSLQAGTKEDLYLHSLKLGYQQCLLGSAFSEDDGDCQGKPSMGQLALYLLALRANCEFVRGHKGDRLVSQLKWFLEDEKRAIGHDHKGHPHTSYYQYGLGILALCLHQKRVHDSVVDKLLYAVEPFHQGHHSVDTAAMAGLAFTCLKRSNFNPGRRQRITMAIRTVREEILKAQTPEGHFGNVYSTPLALQFLMTSPMPGAELGTACLKARVALLASLQDGAFQNALMISQLLPVLNHKTYIDLIFPDCLAPRVMLEPAAETIPQTQEIISVTLQVLSLLPPYRQSISVLAGSTVEDVLKKAHELGGFTYETQASLSGPYLTSVMGKAAGEREFWQLLRDPNTPLLQGIADYRPKDGETIELRLVSW
modifications: plant-expressed; homo sapiens
